According to US20240002497A1 (Merck Sharp & Dohme, published 2024):
Substitutions are numbered along the chain they refer to. Names may count otherwise. Blank lines part the entries; values can stand above or below the binder they belong to.

How the values were obtained:
huNav1.7α + β1 [1] = molecular target: T1, huNav1.7α + β1 (human); test: competition FACS vs EC25 of F103275B05(N93R), HEK
T1 construct: HEK293 cells; also called huNav1.7-beta1; huNav1.7-β1

huNav1.7α [2] = molecular target: T2, huNav1.7α (human, UniProt Q15858 1-1988); test: competition FACS vs EC25 of F103275B05(N93R), HEK
T2 construct: HEK cells expressing the α subunit without β subunits; also called huNav1.7 (alpha-subunit); Human Nav1.7α

huNav1.7α + β1-β2-β3 [3] = molecular target: T3, huNav1.7α + β1-β2-β3 (human, UniProt Q15858 1-1988; A5A6L6 19-218; O60939 30-215; Q2KI11 23-215); test: competition FACS vs EC25 of F103275B05(N93R), HEK FlpIn
T3 construct: also called huNav1.7-beta1-beta2-beta3; huNav1.7-β1-β2-β3

huNav1.7α + β1-β2-β3 [4] = molecular target: T3, huNav1.7α + β1-β2-β3; test: competition FACS vs EC25 of F103275B05(N93R), CHO FlpIn
rhNav1.7α + β1-β2-β3 [5] = molecular target: T4, rhNav1.7α + β1-β2-β3 (rhesus monkey); test: competition FACS vs EC40 of F103275B05(N93R), CHO FlpIn
T4 construct: also called rhNav1.7-beta1-beta2-beta3; rhNav1.7-β1-β2-β3

huNav1.7α + β1 [6] = molecular target: T1, huNav1.7α + β1; test: binding FACS, HEK
huNav1.7α [7] = molecular target: T2, huNav1.7α; test: binding FACS, HEK
huNav157chim14 = molecular target: T5, huNav157chim14 (human); test: binding FACS, HEK Flp-In
T5 construct: HEK Flp-In cells; also called huNav157 chimera 14

huNav1.7α+β1-β2-β3 = molecular target: T6, huNav1.7α+β1-β2-β3 (human, UniProt Q15858 1-1988; Q07699 19-218; O60939 30-215; Q9NY72 23-215); test: binding FACS, HEK FlpIn cells
T6 construct: 5N11S variant; also called huNav1.7-beta1-beta2-beta3; huNav1.7α+Navβ1-Navβ2-Navβ3

huNav1.7α [8] = molecular target: T7, huNav1.7α (human, UniProt Q15858 1-1988); test: binding FACS, HEKa cells
T7 construct: HEK cells expressing the α subunit alone; also called HEKa; HEK huNav1.7α
How it was run: (§1)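 FLAG3-tagged ISVD, 30 min, 4° C, FACS buffer (PBS/10% FBS/NaN₃); 1×10^5 cells/well; detection murine anti-Flag; PI 1 μg/mL live gate; washes between steps.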

huNav1.7α+β1 = molecular target: T8, huNav1.7α+β1 (human, UniProt Q15858 1-1988; Q07699 19-218); test: binding FACS, HEKa/β1 cells
T8 construct: also called huNav1.7-beta1; HEKa/β1
How it was run: as §1

[9] = molecular target: T9, huNav1.7α(E281V) + β1-β2-β3 (human); test: binding FACS, CHO FlpIn cells
T9 construct: polyprotein as encoded; the entry already carries E281V; also called huNav1.7(E281V)-beta1-beta2-beta3
Description: (§2) Binding of the ISVDs to cell-expressed Nav1.7α was detected via murine anti-Flag (Sigma, catalog #F1804). Briefly, cells were resuspended in FACS buffer (PBS, 10% FBS, NaN₃) and transferred to a 96-well V-bottom plate at 1×10^5 cells/well. Purified FLAG3-tagged ISVD was diluted in FACS buffer and added to the cells for 30 minutes at 4° C. […] Prior to the read-out, the samples were resuspended in 1 μg/mL propidium iodide (Sigma, catalog #P4170) to exclude dead cells. Between each step, the cells were centrifuged for 5 minutes at 200 grams and washed with 100 μL/well FACS buffer.
(§3) Based on the huNav1.7α model (as described above) the following huNav1.7α-rhNav1.7α polymorphisms can be allocated to the extracellular part of DI: N146S, F276V, R277Q, E281V and V331M. The first of the residues is in DI S1-S2 whereas the latter four residues belong to DI S5-S6. FACS binding studies (as described above) were performed to stable CHO FlpIn cell lines expressing different variants of huNav1.7+β1−β2−β3 each including one of the four possible extracellular huNav1.7α-rhNav1.7α polymorphisms in the DI S5-S6 region: F276V, R277Q, E281V and V331M (Table 23 and FIGS. 22A-22F). Individual polymorphisms were each sufficient to abolish the binding of F0103265B04, F0103362B08, F010301080, and F0103262B06 to huNav1.7α, recapitulating the absence of binding on rhNav1.7α. F0103262CO2, F0103275B05 and F0103387G05 are more subtly affected in terms of EC50 or Bmax by some of the polymorphisms. None of the individual DI S5-S6 polymorphisms by themselves appear to have an impact on the binding of the two rhNav1.7α cross-reactive ISVDs F0103387G04 and F0103464B09. In addition, no effect on binding of the two ISVDs was observed (data not shown) for the three extracellular DIV VSD huNav1.7α-rhNav1.7α polymorphisms Q1530P, H1531Y and E1534D (FIG. 22G).

rhNav1.7α + β1-β2-β3 [10] = molecular target: T10, rhNav1.7α + β1-β2-β3 (rhesus monkey); test: binding FACS, CHO FlpIn cells
T10 construct: also called rhNav1.7-beta1-beta2-beta3; rhesus Nav1.7α
Description: as §2, §3

[11] = molecular target: T11, huNav1.7α(V331M) + β1-β2-β3 (human); test: binding FACS, CHO FlpIn cells
T11 construct: polyprotein as encoded; the entry already carries V331M; also called huNav1.7(V331M)-beta1-beta2-beta3
Description: as §2, §3

[12] = molecular target: T12, huNav1.7α(F276V) + β1-β2-β3 (human, UniProt Q15858 1-1988; A5A6L6 19-218; O60939 30-215; Q2KI11 23-215); test: binding FACS, CHO FlpIn cells
T12 construct: polyprotein as encoded, P2A sites liberate the subunits; the entry already carries F276V; also called huNav1.7(F276V)-beta1-beta2-beta3
Description: as §2, §3

[13] = molecular target: T13, huNav1.7α(R277Q) + β1-β2-β3 (human); test: binding FACS, CHO FlpIn cells
T13 construct: polyprotein as encoded; the entry already carries R277Q; also called huNav1.7(R277Q)-beta1-beta2-beta3
Description: as §2, §3

huNav1.7α + β1-β2-β3 [14] = molecular target: T14, huNav1.7α + β1-β2-β3 (human, UniProt Q15858 1-1988; A5A6L6 19-218; O60939 30-215; Q2KI11 23-215); test: binding FACS, CHO FlpIn cells
T14 construct: Cell line (CHO FlpIn, HEK FlpIn, transient HEK293T) is named under assay; also called huNav1.7-beta1-beta2-beta3; human Nav1.7α with Navβ1, Navβ2 and Navβ3
Description: as §2, §3

B1: F010300191 (bispecific antibody)
chain: EVQLVESGGGLVQPGGSLRLSCAASGSIFNINSMAWYRRAPGKQRELVASSTNGGSTNYADSVKGRFTISRDNAKRVYLQMNSLTPEDTAVYYCNALLQPSIYDISRTYWGQGTLVTVSSGGGGSGGGGSGGGGSGGGGSGGGGSGGGGSGGGGSGGGGSGGGGSGGGGSEVQLVESGGGLVQAGGSLRLSCAASGGTGRRYAMGWFRQAPGKEREIVAAIRWSAMTYYADDGKGRFTISRDNAKNTVYLQMNSLKPEDTAIYYCAYTWDYFKYDQVRAYRGWGQGTLVTVSSGAADYKDHDGDYKDHDIDYKDDDDKGAAHHHHHH
notes: also called F0103275B05-50GS-F0103240B04-FLAG3-HIS6
- IC50 (huNav1.7α + β1 [1]): 110 nM
- IC50 (huNav1.7α [2]): 67 nM
- IC50 (huNav1.7α + β1-β2-β3 [3]): 0.1 nM

B4: F010300702 (bispecific antibody, V domains shown, not shown: small tags and cut ends)
VH: EVQLVESGGGLVQPGGSLRLSCAASGSIFNINSMAWYRRAPGKQRELVASSTNGGSTNYADSVKGRFTISRDNAKRVYLQMNSLTPEDTAVYYCRALLQPSIYDISRTYWGQGTLVTVSS
notes: also called F010300702 (n = 15); control bivalent ISVD
- MFI (huNav157chim14): 27700 MFI

B5: F010300534 (VHH)
VHH: EVQLVESGGGLVQPGGSLRLSCAASGMLFNANTQGWYRQAPGKQRELVAFIFSGGYVNYVDSVKGRFTISRDNAKRTMYLQMNSLKPEDSAIYYCSLSRYLGQGTLVTVSS
notes: vs F0103265A11: T57V
- EC50 (huNav1.7α+β1-β2-β3): 72 nM
- binding result (huNav1.7α [8]): no binding
- Bmax relative to '535 (huNav1.7α+β1): 62%
- EC50 (huNav1.7α+β1): 11 nM

B7: F010300536 (VHH)
VHH: B5 VHH with V57T, N58T
notes: vs F0103265A11: N58T
- EC50 (huNav1.7α+β1-β2-β3): 27 nM
- EC50 (huNav1.7α [8]): 660 nM
- Bmax relative to '535 (huNav1.7α+β1): 77%
- EC50 (huNav1.7α+β1): 9 nM

B8: F010301463 (VHH)
VHH: B5 VHH with A31R, V57T, V60N, S96A, L101Q
notes: vs F0103265A11: A31R, V60N, S93A, L103Q
- EC50 (huNav1.7α+β1-β2-β3): 4.3 nM
- Bmax relative to '535 (huNav1.7α+β1): 120%
- EC50 (huNav1.7α+β1): 2.5 nM

B9: F010301458 (VHH)
VHH: B5 VHH with A31R, Y56W, V57T, V60N, S96A, L101Q
notes: vs F0103265A11: A31R, Y56W, V60N, S93A, L103Q
- EC50 (huNav1.7α+β1-β2-β3): 4.1 nM
- Bmax relative to '535 (huNav1.7α+β1): 120%
- EC50 (huNav1.7α+β1): 2.2 nM

The remaining lines, values ahead:

- IC50 (huNav1.7α + β1 [1]): 110 nM
- IC50 (huNav1.7α [2]): 67 nM
- IC50 (huNav1.7α + β1-β2-β3 [4]): 8.1 nM
- IC50 (rhNav1.7α + β1-β2-β3 [5]): 2 nM
- IC50 (huNav1.7α + β1-β2-β3 [3]): 8.7 nM
B2: F010302380 (bispecific antibody)
chain: DVQLVESGGGLVQPGGSLRLSCAASGSIFNINSMAWYRRAPGKQRELVASSTNGGSTNYADSVKGRFTISRDNAKRVYLQMNSLTPEDTAVYYCRALLQPSIYDISRTYWGQGTLVTVSSGGGGSGGGGSGGGGSGGGGSGGGGSGGGGSGGGGSGGGGSGGGGSGGGGSEVQLVESGGGLVQAGGSLRLSCVTSGRTSDLSTMNWFRQAPGKEREFVARITRRGSTYYAESVKERFIISRDNAKNTVYLQMNSLKPEDTANYYCTAASEMGYHYRGQGTQVTVSSGAADYKDHDGDYKDHDIDYKDDDDKGAAHHHHHH
notes: also called F0103275B05(E1D, N93R)-50GS-F0103505D08(L108Q)-FLAG3-HIS6

- EC50 (huNav1.7α + β1 [6]): 13 nM
- EC50 (huNav1.7α [7]): 13 nM
B3: F0103275B05-FLAG3 + HIS6 (VHH)
VHH: B4 VH with R95N
notes: also called F0103275B05 (parental)-FLAG-HIS6

- EC50 [9]: 2.5 nM
- binding result (rhNav1.7α + β1-β2-β3 [10]): no binding
- binding result [11]: no binding
- EC50 [12]: 2.6 nM
- EC50 [13]: 3.2 nM
- EC50 (huNav1.7α + β1-β2-β3 [14]): 3.4 nM
B6: F010301080 (VHH)
VHH: B5 VHH with S53W, N58T, V60N

- EC50 (huNav1.7α+β1-β2-β3): 16 nM
- EC50 (huNav1.7α [8]): 720 nM
- Bmax relative to '535 (huNav1.7α+β1): 100%
- EC50 (huNav1.7α+β1): 5.5 nM
B10: F010300535 (VHH)
VHH: B5 VHH with S53W, V57T
notes: vs F0103265A11: S53W
